Consider 4 molecules from patent US20150197568A1 (AstraZeneca / MedImmune, published 2015).

Residue numbers refer to the chain shown, from its start.

B1: Cynomolgus IL-6 (ligand, UniProt P79341 28-212, looked up)
chain: APVLPGEDSKDVAAPHSQPLTSSERIDKHIRYILDGISALRKETCNRSNMCESSKEALAENNLNLPKMAEKDGCFQSGFNEDTCLVKIITGLLEFEVYLEYLQNRFESSEEQARAVQMSTKVLIQFLQKKAKNLDAITTPEPTTNASLLTKLQAQNQWLQDMTTHLILRSFKEFLQSSLRALRQM
notes: mature; also called cyno IL-6; macaque IL-6
B2: CAN022D10 scFv (scFv, V domains shown)
VH: EVQLVQSGGGLIQPGGSLRLSCAASGFTISSNYMIWVRQAPGKGLEWVSDLYYYAGDTYYADSVKGRFTMSRDISKNTVYLQMNSLRAEDTGVYYCARWADDHYYYIDVWGRGTLVTVSS
VL: DIVMTQSPSTLSASVGDRVTITCRASQGISSWLAWYQQKPGRAPKVLIYKASTLESGVPSRFSGSGSGTDFTLTISSLQPEDFATYYCQQSYSTPWTFGQGTKLEIKR
notes: Purified scFv from bacteria; also called CAN22D10; parent; not shown: scFv linker, domain order and any purification tags
B3: Antibody 7 (GL) IgG (antibody, V domains shown)
VH: B2 VH with Q6E, I12V, G92A, Y104P, Y105A, Y106W, I107V, V109L
VL: DIQMTQSPSTLSASVGDRVTITCRASQGISSWLAWYQQKPGKAPKVLIYKASTLESGVPSRFSGSGSGTEFTLTISSLQPDDFATYYCQQSWLGGSFGQGTKLEIKR
notes: Germlined IgG1 with human kappa constant domain; also called Ab 7
B4: Antibody 18 (GL) IgG (antibody, V domains shown)
VH: B2 VH with Q6E, I12V, G92A, Y104P, Y105P, Y106W, V109L
VL: B3 VL
notes: Germlined IgG1/kappa; also called Ab 18

One assay has as its target T1, CAN022D10 IgG.
T1 construct: Biotinylated in the HTRF antibody-ligand assay; also called CAN22D10; parent IgG
The assay is described as follows: DELFIA epitope competition; protein titrated against biotinylated HIS FLAG IL-6 on immobilised CAN022D10 IgG. The procedure: Titrations of IL-6 species including cynomolgus (in house E. Coli derived), human HIS FLAG IL-6 (in house HEK-EBNA derived), rat and murine IL-6 (both R & D Systems) were tested in each assay to establish the species cross-reactivity of the antibodies. Details of the protocol are provided in the Materials and Methods section.
Purified IgG were adsorbed onto 96-well Maxisorp microtitre plates (Nunc) in PBS at a concentration which gave a significant signal when biotinylated human IL-6 was added at approximately its estimated Kd for that particular IgG. Excess IgG was washed away with PBS-Tween (0.1% v/v) and the wells were blocked with PBS-Marvel (3% w/v) for 1 h. […] These mixtures were then transferred onto the blocked IgG and allowed to equilibrate for 1.5 h. Unbound antigen was removed by washing with PBS-Tween (0.1% v/v), while the remaining biotinylated human IL-6 was detected by streptavidin-Europium3+ conjugate (DELFIA® detection, PerkinElmer). Time-resolved fluorescence was measured at 620 nm on an EnVision plate reader (PerkinElmer). Fluorescence data was converted to % specific binding (100% was determined from control wells containing biotinylated human IL-6 but no competitor, 0% was from wells containing biotinylated human IL-6 and a 100-fold excess of unbiotinylated human IL-6). Resultant data were analysed using Prism curve fitting software (Graphpad) to determine IC50 values according to Equation 3.

Assay [1] addresses T2, HIS FLAG tagged human IL-6 (human, UniProt P05231 30-212).
T2 construct: In house; also called HIS FLAG IL-6; HIS/FLAG IL-6
The experiment in a line: HTRF receptor-ligand competition; HIS FLAG human IL-6 vs biotinylated sIL-6R. The procedure: Unique scFvs were expressed again in bacteria and purified by affinity chromatography (as described by Bannister et al. Purified IgG samples of these clones were also prepared as described in section 1.3. The potencies of these samples were determined by competing a dilution series of the purified preparation against biotinylated sIL-6R for binding to HIS FLAG tagged human IL-6 (in house E. coli derived).
Purified scFv and IgG from positive clones identified from screening were tested in a HTRF® assay for inhibition of binding of HIS FLAG tagged human IL-6 to biotinylated IL-6R. 8 nM biotinylated human IL-6R was pre-incubated for 30 minutes at room temperature in the dark, with 8 nM streptavidin XL^{ent!}™. All dilutions were done in phosphate buffered saline (PBS) containing 0.4 M potassium fluoride and 0.1% BSA (assay buffer).

Assay [2] has as its target T3, Mature human IL-6 (human, UniProt P05231 30-212). The experiment in a line: cell-based or functional assay.
Target sequence in this assay (P05231 30-212): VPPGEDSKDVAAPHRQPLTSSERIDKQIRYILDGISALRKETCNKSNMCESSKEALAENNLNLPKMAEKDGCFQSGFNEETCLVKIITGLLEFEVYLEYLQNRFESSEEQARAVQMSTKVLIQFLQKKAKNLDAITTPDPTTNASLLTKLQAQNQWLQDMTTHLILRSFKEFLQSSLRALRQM
Assay [3] has as its target T3, Mature human IL-6. The assay is described as follows: cell-based or functional assay. The source holds these as a separate data set.
Target sequence in this assay (P05231 30-212): as above
In assay [4] the target is T3, Mature human IL-6. The experiment in a line: cell-based or functional assay. The source holds these as a separate data set.
Assay [5] deals with T3, Mature human IL-6. The assay is described as follows: SPR, BIAcore 2000; IgG amine-coupled to CM5 chip, IL-6 as analyte. The procedure:
(§1) Human and cynomolgus IL-6 at a range of concentrations between 200 nM and 0.2 nM in HBS-EP buffer were passed over the sensor chip surface. The resulting sensorgrams were evaluated using BIA evaluation 3.1 software to provide relative binding data.
(§2) BIAcore studies were undertaken using a BIAcore 2000™. […] Human IL-6 at a range of concentrations between 200 nM and 0.2 nM in HBS-EP buffer were passed over the sensor chip surface. The resulting sensorgrams were evaluated using BIA evaluation 3.1 software to calculate the kₒₙ, koff and KD values for the antibodies tested.

The assay “Cynomolgus IL-6” has as its target B1. The assay is described as above. The procedure: as §1, §2

The IC50 is the midpoint of a concentration-inhibition curve. Read a high IC50 as weaker potency. Consider B1, for which the IC50 with CAN022D10 IgG is ~100 nM.

Take B2: in assay [1], the IC50 is 45 nM.

The term Kd denotes the concentration at which binding is half-saturated. A low value points to higher affinity. Consider B3, for which the “IC50, IL-6 induced TF-1 cell proliferation assay” value with Mature human IL-6 [2] turned out to be 0.005 nM. Further, the “IC50, endogenous IL-6 induced synovial fibroblast VEGF release assay” value with Mature human IL-6 [3] is 0.75 nM. Also, the “Mean IC50, inhibition of IL-6 induced IgM secretion from SKW6.4 cells, n=3” value with Mature human IL-6 [4] amounted to 0.00264 nM. The equilibrium dissociation constant (Kd) with Mature human IL-6 [5] and with Cynomolgus IL-6 was < 0.01 nM each time.

As for B4, the “IC50, IL-6 induced TF-1 cell proliferation assay” value with Mature human IL-6 [2] was found to be 0.003 nM. The “IC50, endogenous IL-6 induced synovial fibroblast VEGF release assay” value in the assay with Mature human IL-6 [3] came out at 0.93 nM. The “Mean IC50, inhibition of IL-6 induced IgM secretion from SKW6.4 cells, n=3” value in the assay with Mature human IL-6 [4] was 0.00263 nM. In addition, the Kd with Mature human IL-6 [5] and with Cynomolgus IL-6 was < 0.01 nM in each case.
